Experiments:
[1] = target: T1, hCD112R mFC recombinant protein (human; murine, UniProt Q6DKI7 41-160); assay: FACS competition, hCD112R mFc on CHO CD112 cells; IC50 COM701/IC50 antibody
T1 construct: range 41-160; expressed in 293E cells; also called hCD112R ECD mFC; hCD112R-ECD-mFC; not shown: murine IgG2a Fc domain (MX2-mFc vector)
T1 sequence (looked up): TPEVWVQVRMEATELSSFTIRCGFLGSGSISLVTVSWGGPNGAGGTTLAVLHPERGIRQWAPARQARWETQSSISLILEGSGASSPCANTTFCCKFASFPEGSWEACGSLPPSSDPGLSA
Method: (§1) Cells CHO CD112 overexpressing human CD112 were co-incubated with a hCD112R mFc protein solution (5 μg/mL) prepared in a staining buffer (PBS+1% FBS), and the humanized anti-CD112R antibodies or the control antibodies at different concentrations (initial concentration: 100 μg/mL, 3-fold dilution, 10 concentration gradients) at 4° C. for 30 min. Unbound antibodies were then washed with a staining buffer and the cells were incubated with 1% (v/v) goat anti-mouse IgG Fc fluorescent secondary antibodies (Jackson ImmunoResearch) prepared in a staining buffer at 4° C. for 30 min in the dark. Finally, the cells were collected by using a flow cytometer (BD Canto II), and the fluorescent antibodies bound to the cell surface were detected. Raw data were analyzed by using FlowJo to obtain MFI values, and a four-parameter curve fitting was performed by using GraphPad Prism software to obtain IC₅₀ values. The positive control and the negative control were COM701 (anti-CD112R antibody, Compugen, obtained by expression and purification according to the sequences in US20180280506A1) and the anti-KLH hu-IgG4 antibody, respectively.

[2] = target: T2, human CD112R on Jurkat CD112R effector cells (human, UniProt Q6DKI7 1-326); assay: cell-based or functional assay
T2 sequence (looked up): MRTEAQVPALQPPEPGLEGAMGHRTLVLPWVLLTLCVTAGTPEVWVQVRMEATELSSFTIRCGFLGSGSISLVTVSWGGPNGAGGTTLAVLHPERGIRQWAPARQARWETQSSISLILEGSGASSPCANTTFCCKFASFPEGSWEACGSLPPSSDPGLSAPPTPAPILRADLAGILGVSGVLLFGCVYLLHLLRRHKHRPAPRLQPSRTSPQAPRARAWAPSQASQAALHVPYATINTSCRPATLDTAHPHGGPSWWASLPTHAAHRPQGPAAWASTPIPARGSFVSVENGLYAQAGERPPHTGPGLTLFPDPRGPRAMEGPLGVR

[3] = target: T1, hCD112R mFC recombinant protein; assay: ELISA, coated hCD112R-ECD-mFC; EC50 COM701/EC50 antibody
Method: (§2) A plate was coated with a hCD112R-ECD-mFC protein (1.5 μg/mL) at a fixed concentration, and the humanized anti-CD112R antibodies diluted in a gradient (initial concentration: 1 μg/mL, 2.5-fold gradient dilution, 12 concentration gradients in total) were added to bind to the antigen. HRP-conjugated goat anti-human antibody IgG (Fc specific) (Sigma, A0170) was subjected to a 5000-fold dilution and used as a detection antibody for detection. The color development was performed with 0.1 mg/mL TMB, and finally stopped with 2 M hydrochloric acid. The plate was read at 420 nm/620 nm. EC₅₀ was obtained by fitting with a four-parameter logistic regression (4PL) model. The […] were COM701 (anti-CD112R antibody, Compugen, obtained by expression and purification according to the sequences in US20180280506A1) and the anti-KLH hu-IgG4 antibody.

[4] = target: T1, hCD112R mFC recombinant protein; assay: FACS competition, hCD112R mFc on CHO CD112 cells
Method: as §1

[5] = target: T1, hCD112R mFC recombinant protein; assay: ELISA, coated hCD112R-ECD-mFC
Method: as §2

B1: Hu32 (antibody, IgG4, V domains shown)
VH: EVQLVESGGGLVQPGGSLRLSCAASGFTFSSYHMSWVRQAPGKGLELVAAISRDGDSTYYPDTVKGRFTISRDDAENSLYLQMNSLRAEDTAVYYCSRHEDYFGFAMDSWGQGTLVTVSS
VL: AIQMTQSPSSLSASVGDRVTITCKASQSVTNDVAWYQQKPGKAPKLLIYYVSNHYTGVPSRFSGSGSGTDFTLTISSLQPEDFATYFCQQAYRSPWTFGQGTKLEIK
notes: humanized IgG4
Relative activity (%) [1]: 127% | EC50, CD112R/CD112 reporter [2]: 0.0471 µg/mL | Relative activity (%), EC50 COM701/EC50 antibody [2]: 119% | Relative activity (%) [3]: 150% | IC50 [4]: 2.82 µg/mL | EC50 [5]: 0.00404 µg/mL

B2: Hu4 (antibody, IgG4, V domains shown)
VH: EVQLVESGGGLVQPGGSLRLSCAASGFTFSSYHMSWVRQAPGKGLELVAAINSNDINTYYLDTVKGRFTISRDIAKNSLYLQMNSLRAEDTAVYYCARHEDYYGFAMDYWGQGTLVTVSS
VL: DIVMTQSPDSLAVSLGERATINCKASQSVSNDVAWYQQKPGQPPKLLIYYVSHRFTGVPDRFSGSGSGTDFTLTISSLQAEDVAVYFCHQAYRSPWTFGQGTKLEIK
notes: humanized IgG4; also called Hu-04
Relative activity (%) [1]: 94.2% | EC50, CD112R/CD112 reporter [2]: 0.0385 µg/mL | Relative activity (%), EC50 COM701/EC50 antibody [2]: 186% | Relative activity (%) [3]: 144% | IC50 [4]: 4.22 µg/mL | EC50 [5]: 0.00295 µg/mL

B3: Hu25 (antibody, IgG4, V domains shown)
VH: EVQLVESGGGLVQPGGSLRLSCAASGFTFSSYHMSWVRQAPGKGLELVAAISRDGDSTYYPDTVKGRFTISRDNAKNSLYLQMNSLRAEDTAVYYCSRHEDYFGFAMDSWGQGTLVTVSS
VL: DIVMTQSPDSLAVSLGERATINCKASQSVTNDVAWYQQKPGQPPKLLIYYVSNHYTGVPDRFSGSGSGTDFTLTISSLQAEDVAVYFCQQAYRSPWTFGQGTKLEIK
notes: humanized IgG4
Relative activity (%) [1]: 97% | EC50, CD112R/CD112 reporter [2]: 0.0412 µg/mL | Relative activity (%), EC50 COM701/EC50 antibody [2]: 157% | Relative activity (%) [3]: 165% | IC50 [4]: 3.7 µg/mL | EC50 [5]: 0.00403 µg/mL

B4: Hu13 (antibody, IgG4, V domains shown)
VH: EVQLVESGGGLVKPGGSLRLSCAASGFTFSSYHMSWVRQAPGKGLELVSAISRDGDSTYYPDTVKGRFTISRDNAKNSLYLQMNSLRAEDTAVYYCSRHEDYFGFAMDSWGQGTLVTVSS
VL: DIVMTQSPDSLAVSLGERATINCKASQSVTNDVAWYQQKPGQPPKLLIYYVSNHYTGVPDRFSGSGSGTDFTLTISSLQAEDVAVYFCQQAYRSPWTFGQGTKLEIK
notes: humanized IgG4
Relative activity (%) [1]: 164% | EC50, CD112R/CD112 reporter [2]: 0.0252 µg/mL | Relative activity (%), EC50 COM701/EC50 antibody [2]: 192% | Relative activity (%) [3]: 132% | IC50 [4]: 2.19 µg/mL | EC50 [5]: 0.00433 µg/mL

B5: Hu55 (antibody, IgG4, V domains shown)
VH: EVQLVESGGGLVQPGGSLRLSCAASGFTFSSYHMSWIRQAPGKGLELVAAINSNGINTYYLDTVKGRFTISRDNAKNSLYLQMNSLRAEDTAVYYCARHEDYYGFAMDYWGQGTLVTVSS
VL: DIVMTQSPDSLAVSLGERATINCKASQSVTNDVAWYQQKPGQPPKLLIYYVSNHYTGVPDRFSGSGSGTDFTLTISSLQAEDVAVYFCQQAYRSPWTFGQGTKLEIK
notes: humanized IgG4
Relative activity (%) [1]: 85.7% | EC50, CD112R/CD112 reporter [2]: 0.0223 µg/mL | Relative activity (%), EC50 COM701/EC50 antibody [2]: 302% | Relative activity (%) [3]: 166% | IC50 [4]: 2.81 µg/mL | EC50 [5]: 0.00553 µg/mL

B6: Hu19 (antibody, IgG4, V domains shown)
VH: EVQLVESGGGLVKPGGSLRLSCAASGFTFSSYHMSWVRQAPGKGLELVSAISRDGDSTYYPDTVKGRFTISRDDAENSLYLQMNSLRAEDTAVYYCSRHEDYFGFAMDSWGQGTLVTVSS
VL: DIVMTQSPDSLAVSLGERATINCKASQSVTNDVAWYQQKPGQPPKLLIYYVSNHYTGVPDRFSGSGSGTDFTLTISSLQAEDVAVYFCQQAYRSPWTFGQGTKLEIK
notes: humanized IgG4
Relative activity (%) [1]: 144% | EC50, CD112R/CD112 reporter [2]: 0.0404 µg/mL | Relative activity (%), EC50 COM701/EC50 antibody [2]: 127% | Relative activity (%) [3]: 139% | IC50 [4]: 2.48 µg/mL | EC50 [5]: 0.00411 µg/mL

B7: Hu49 (antibody, IgG4, V domains shown)
VH: EVQLVESGGGLVKPGGSLRLSCAASGFTFSSYHMSWVRQAPGKGLELVSAINSNGINTYYLDTVKGRFTISRDNAKNSLYLQMNSLRAEDTAVYYCARHEDYYGFAMDYWGQGTLVTVSS
VL: DIVMTQSPDSLAVSLGERATINCKASQSVTNDVAWYQQKPGQPPKLLIYYVSNHYTGVPDRFSGSGSGTDFTLTISSLQAEDVAVYFCQQAYRSPWTFGQGTKLEIK
notes: humanized IgG4
Relative activity (%) [1]: 97.5% | EC50, CD112R/CD112 reporter [2]: 0.0307 µg/mL | Relative activity (%), EC50 COM701/EC50 antibody [2]: 214% | Relative activity (%) [3]: 176% | IC50 [4]: 2.47 µg/mL | EC50 [5]: 0.00495 µg/mL

B8: Hu10 (antibody, IgG4, V domains shown)
VH: EVQLVESGGGLVKPGGSLRLSCAASGFTFSSYHMSWVRQAPGKGLELVSAINSNDINTYYLDTVKGRFTISRDIAKNSLYLQMNSLRAEDTAVYYCARHEDYYGFAMDYWGQGTLVTVSS
VL: DIVMTQSPDSLAVSLGERATINCKASQSVSNDVAWYQQKPGQPPKLLIYYVSHRFTGVPDRFSGSGSGTDFTLTISSLQAEDVAVYFCHQAYRSPWTFGQGTKLEIK
notes: humanized IgG4
Relative activity (%) [1]: 95.5% | EC50, CD112R/CD112 reporter [2]: 0.0377 µg/mL | Relative activity (%), EC50 COM701/EC50 antibody [2]: 199% | Relative activity (%) [3]: 153% | IC50 [4]: 4.17 µg/mL | EC50 [5]: 0.00257 µg/mL

B9: Hu7 (antibody, IgG4, V domains shown)
VH: EVQLVESGGGLVKPGGSLRLSCAASGFTFSSYHMSWVRQAPGKGLELVSAINSNDINTYYLDTVKGRFTISRDIAKNSLYLQMNSLRAEDTAVYYCARHEDYYGFAMDYWGQGTLVTVSS
VL: DIVMTQSPDSLAVSLGERATINCKASQSVTNDVAWYQQKPGQPPKLLIYYVSNHYTGVPDRFSGSGSGTDFTLTISSLQAEDVAVYFCQQAYRSPWTFGQGTKLEIK
notes: humanized IgG4; also called Hu-07
Relative activity (%) [1]: 78.6% | EC50, CD112R/CD112 reporter [2]: 0.144 µg/mL | Relative activity (%), EC50 COM701/EC50 antibody [2]: 48.6% | Relative activity (%) [3]: 91% | IC50 [4]: 5.06 µg/mL | EC50 [5]: 0.00432 µg/mL

B10: Hu58 (antibody, IgG4, V domains shown)
VH: EVQLVESGGGLVQPGGSLRLSCAASGFTFSSYHMSWIRQAPGKGLELVAAINSNGINTYYLDTVKGRFTISRDNAKNSLYLQMNSLRAEDTAVYYCARHEDYYGFAMDYWGQGTLVTVSS
VL: DIVMTQSPDSLAVSLGERATINCKASQSVSNDVAWYQQKPGQPPKLLIYYVSHRFTGVPDRFSGSGSGTDFTLTISSLQAEDVAVYFCHQAYRSPWTFGQGTKLEIK
notes: humanized IgG4
Relative activity (%) [1]: 74% | EC50, CD112R/CD112 reporter [2]: 0.0216 µg/mL | Relative activity (%), EC50 COM701/EC50 antibody [2]: 277% | Relative activity (%) [3]: 172% | IC50 [4]: 3.25 µg/mL | EC50 [5]: 0.00488 µg/mL

B11: Hu31 (antibody, IgG4, V domains shown)
VH: EVQLVESGGGLVQPGGSLRLSCAASGFTFSSYHMSWVRQAPGKGLELVAAISRDGDSTYYPDTVKGRFTISRDDAENSLYLQMNSLRAEDTAVYYCSRHEDYFGFAMDSWGQGTLVTVSS
VL: DIVMTQSPDSLAVSLGERATINCKASQSVTNDVAWYQQKPGQPPKLLIYYVSNHYTGVPDRFSGSGSGTDFTLTISSLQAEDVAVYFCQQAYRSPWTFGQGTKLEIK
notes: humanized IgG4
Relative activity (%) [1]: 142% | EC50, CD112R/CD112 reporter [2]: 0.0507 µg/mL | Relative activity (%), EC50 COM701/EC50 antibody [2]: 110% | Relative activity (%) [3]: 179% | IC50 [4]: 2.52 µg/mL | EC50 [5]: 0.00339 µg/mL
